Experimental data reported in IntAct's records for PubMed 31046837.

Biological target: at2a2_mouse Atp2a2 (UniProt O55143)
Sequence (O55143 whole entry): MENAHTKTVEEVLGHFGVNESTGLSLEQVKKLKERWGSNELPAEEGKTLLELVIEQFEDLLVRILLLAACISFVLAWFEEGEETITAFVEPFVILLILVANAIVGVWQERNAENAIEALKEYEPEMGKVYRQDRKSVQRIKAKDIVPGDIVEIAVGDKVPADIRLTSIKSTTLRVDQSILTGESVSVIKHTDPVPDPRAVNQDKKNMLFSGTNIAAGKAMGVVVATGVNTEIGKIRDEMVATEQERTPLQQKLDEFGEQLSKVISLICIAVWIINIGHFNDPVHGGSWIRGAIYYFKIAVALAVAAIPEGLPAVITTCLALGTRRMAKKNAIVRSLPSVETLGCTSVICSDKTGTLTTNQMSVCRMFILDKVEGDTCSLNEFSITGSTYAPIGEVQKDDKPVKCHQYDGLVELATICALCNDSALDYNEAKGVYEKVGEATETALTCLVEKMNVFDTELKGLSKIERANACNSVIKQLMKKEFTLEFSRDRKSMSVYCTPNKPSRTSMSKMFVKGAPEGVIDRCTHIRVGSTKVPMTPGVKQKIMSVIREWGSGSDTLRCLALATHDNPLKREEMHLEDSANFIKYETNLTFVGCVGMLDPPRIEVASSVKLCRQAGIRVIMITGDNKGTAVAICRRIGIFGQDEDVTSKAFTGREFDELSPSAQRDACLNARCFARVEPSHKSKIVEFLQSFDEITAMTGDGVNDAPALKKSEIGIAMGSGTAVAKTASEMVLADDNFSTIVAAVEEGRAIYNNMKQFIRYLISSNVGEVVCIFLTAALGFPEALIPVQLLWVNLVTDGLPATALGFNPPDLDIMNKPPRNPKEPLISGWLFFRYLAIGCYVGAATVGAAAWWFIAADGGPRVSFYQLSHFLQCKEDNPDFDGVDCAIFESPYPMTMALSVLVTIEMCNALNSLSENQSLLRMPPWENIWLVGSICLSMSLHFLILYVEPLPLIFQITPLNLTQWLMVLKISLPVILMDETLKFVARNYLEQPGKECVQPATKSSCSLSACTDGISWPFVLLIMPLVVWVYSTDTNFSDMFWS

## Leucine-rich repeat serine/threonine-protein kinase 2 (Homo sapiens), Q5S007 G2019S
  effect of a mutation on the interaction: increasing interaction strength
